B2: recombinant human bone morphogenetic protein-2 (rhBMP-2) (ligand, UniProt P12643 283-396, looked up)
chain: QAKHKQRKRLKSSCKRHPLYVDFSDVGWNDWIVAPPGYHAFYCHGECPFPLADHLNSTNHAIVQTLVNSVNSKIPKACCVPTELSAISMLYLDENEKVVLKNYQDMVVEGCGCR
notes: Amine-coupled to a CM-5 sensor chip

Bridges are numbered along the chain shown (N, C = ends). Where no end group is shown, it is not given here.

Assay [1] concerns the target B2. The experiment in a line: cell-based or functional assay.
Assay [2] concerns the target T1, recombinant human osteogenic protein-1 (rhOP-1, rhBMP-7) (human, UniProt P18075 293-431).
T1 construct: Amine-coupled to a CM-5 sensor chip
T1 sequence (looked up): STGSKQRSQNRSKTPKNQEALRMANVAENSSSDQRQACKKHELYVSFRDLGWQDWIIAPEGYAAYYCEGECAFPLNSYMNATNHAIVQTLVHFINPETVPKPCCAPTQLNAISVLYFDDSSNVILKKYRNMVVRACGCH
The experiment in a line: SPR (Biacore X), ligand amine-coupled to CM-5 chip, Langmuir analysis. Here is the method: (§1) The supernatant was decanted and used for analyses. Protein concentrations were determined using UV spectroscopy at an absorbance of 280 nm. Extinction coefficients were calculated using ProtParam tool (www.expasy.ch/tools/protparam.html). Flow rates ranged from 5 to 50 μl/min, and injection volumes were 20 to 100 μl. To ensure uniformity, an effort was made to react sufficient ligand to the chip to give a baseline value of about 2500 RU (response units). The kinetic constants kₐ (on rate, association constant, “recognition”) and kd (off rate, dissociation constant, “stability”) as well as the equilibrium constant KD (equilibrium constant, “affinity”) were determined by a Langmuir analysis using BIAevaluation software (version 3.2) installed on the instrument by the manufacturer.
Background: Surface plasmon resonance follows binding to a sensor surface in real time, without labels.

The target of assay [3] is B2. The description is as above. As for the experimental part:
as §1

The target in assay [4] is recombinant human transforming growth factor-beta (rhTGF-β) (human). Described as above. As for the experimental part:
as §1

The target of assay [5] is B2. The experiment in a line: SPR (Biacore X), rhBMP-2 on CM-5 chip, peptide as analyte; rhBMP-2 affixed to the chip; cyclized BBP, not reduced.
Assay [6] concerns the target T2, spp24 (secreted phosphoprotein, 24 kD), the parental protein of BBP (Bos taurus (Bovine), UniProt Q27967 24-203).
T2 construct: also called the related protein
T2 sequence: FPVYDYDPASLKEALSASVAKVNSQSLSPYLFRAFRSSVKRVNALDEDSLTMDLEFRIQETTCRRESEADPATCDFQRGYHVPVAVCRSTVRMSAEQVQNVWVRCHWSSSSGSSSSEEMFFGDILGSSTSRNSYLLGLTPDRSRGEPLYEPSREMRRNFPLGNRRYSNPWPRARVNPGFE
Briefly: SPR (Biacore X), ligand amine-coupled to CM-5 chip, Langmuir analysis. As for the experimental part: as §1

Sequence of recombinant human transforming growth factor-beta (rhTGF-β) (human) (P01137 279-390): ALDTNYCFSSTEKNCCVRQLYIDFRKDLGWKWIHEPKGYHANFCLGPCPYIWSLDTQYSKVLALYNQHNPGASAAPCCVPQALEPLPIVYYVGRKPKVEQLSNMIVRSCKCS

B1: BMP Binding Peptide (BBP), cyclized synthetic 19 amino acid peptide (peptide)
peptide: CRSTVRMSAEQVQNVWVRC
modifications: disulfide 1-19 (inferred)
notes: it is treated here as the same bovine cyclic peptide; also called cyclized BBP
One may read the Kd as the equilibrium constant for the complex coming apart. As to B1, the “retention of labeled rhBMP-2 in collagen sponge implants in rodent muscle pouches” value in assay [1] was approximately 2 fold. For the same molecule, the Kd was 1160 nM in assay [2], 53.3 nM in assay [3], 68 nM in assay [4] and approximately 30000 nM in assay [5].

In general, koff refers to the first-order rate constant of dissociation. As usually defined, the kon is a measure of how fast the partners come together. On to B2, for which, in assay [6], the equilibrium dissociation constant (Kd) was 17.7 nM, the koff amounted to 0.0055 s⁻¹ and the on-rate constant (kon) turned out to be 311000 M⁻¹ s⁻¹.

Source of the values: patent US20160000860A1 (University of California, published 2016).
